Source: patent US20220017635A1 (Kyowa Kirin, published 2022)

B1: 2230 (antibody, V domains shown)
VH: QVQLQESGPGLVKPSETLSLTCTVSGGSISSYYWSWIRQPPGKGLEWIGYIYYSGSTNYNPSLKSRVTISLDTSKNQFSLRLSSVTTADTALYYCTREAGYYDSSGYYGFDYWGQGTLVTVSS
VL: DIQMTQSPSSLSASVGDRVTITCRASQGISSWLAWYQQKPEKAPKSLIYAASSLQSGVPSRFSGSGSGTDFTLTISSLQPEDFATYFCQQYYNYPYTFGQGTKLEIK
notes: From a hybridoma; light chain other than A27; also called clone 2230; anti-TfR antibody 2230
B2: T14 (antibody, V domains shown)
VH: EVQLVESGGGLVQPGGSLRLSCVVSGGTFSNFNMNWVRQAPGKGLEWVSYISGSSSTIYYADSVKGRFTISRDNAKNSLYLQMNSLRDEDTAVYYCVSSSWYYWGQGTLVTVSS
VL: not shown
notes: IgG4PE or IgG4PE R409K constant region; also called anti-TfR antibody T14

Columns and labels:
mouse TfR on CHO cells = molecular target: T1, mouse TfR on CHO cells (mouse, UniProt Q62351 1-763); experiment: flow cytometry on mouse TfR/CHO cells
T1 construct: also called mouse TfR/CHO
Description: Subsequently, an epitope analysis for various types of TfR antibodies was carried out.

[1] = molecular target: T2, huTfR with mouse protease-like domain (human/mouse chimera); experiment: ELISA on immobilized chimeric TfR
T2 construct: His tag added; also called chimeric protein of human TfR extracellular domain with mouse protease-like domain
T2 chain: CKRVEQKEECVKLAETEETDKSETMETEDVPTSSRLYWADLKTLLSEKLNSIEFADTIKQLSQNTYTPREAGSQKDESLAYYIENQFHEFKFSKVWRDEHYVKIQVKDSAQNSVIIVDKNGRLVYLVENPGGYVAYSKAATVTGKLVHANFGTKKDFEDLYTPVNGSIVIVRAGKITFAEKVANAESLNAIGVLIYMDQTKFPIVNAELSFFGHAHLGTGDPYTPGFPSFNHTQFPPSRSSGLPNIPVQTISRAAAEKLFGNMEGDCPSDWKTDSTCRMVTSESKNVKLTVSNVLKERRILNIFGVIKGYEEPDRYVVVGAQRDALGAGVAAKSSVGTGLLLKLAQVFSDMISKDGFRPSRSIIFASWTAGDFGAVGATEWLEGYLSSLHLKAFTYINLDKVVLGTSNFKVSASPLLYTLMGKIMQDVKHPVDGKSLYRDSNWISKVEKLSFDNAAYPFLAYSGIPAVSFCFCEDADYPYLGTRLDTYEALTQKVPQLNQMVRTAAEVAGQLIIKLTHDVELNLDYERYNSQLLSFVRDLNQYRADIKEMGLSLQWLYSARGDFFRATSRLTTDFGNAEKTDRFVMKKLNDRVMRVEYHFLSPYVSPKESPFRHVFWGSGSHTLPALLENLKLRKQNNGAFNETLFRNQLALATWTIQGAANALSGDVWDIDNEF
Description: (§1) ELISA was carried out by the following method. To a 96-well immunoplate (NUNC, Inc.) on which an antigen protein was immobilized, 1% (w/v) BSA-PBS(−) pH 7.0 without KCl (hereinafter referred to as blocking solution, Nacalai Tesque, Inc.) was added to perform blocking at room temperature, and thereafter, the anti-TfR antibody diluted with the same solution was added thereto and a reaction was allowed to proceed at room temperature for 1 hour. Thereafter, washing was performed with 0.05% (w/v)-tPBS (1×) without KCl (pH 7.2) (hereinafter referred to as washing solution, Nacalai Tesque, Inc.), Anti-Human IgG (Fc) Goat IgG Fab″-HRP (IBL, Inc.) diluted with the blocking solution was added thereto, and a reaction was allowed to proceed at room temperature for 1 hour. Thereafter, washing was performed with the washing solution, and 1-Step (registered trademark) Ultra TMB-ELISA Substrate Solution (Thermo, Inc.) was added thereto, and a reaction was allowed to proceed at room temperature. The coloring reaction was stopped by adding a 5 N HCl solution, and an absorbance at a wavelength of 450 nm (reference wavelength: 570 nm) was measured using a plate reader (EPOCH 2: BioTek Instruments, Inc.).
(§2) Further, a value obtained by subtracting the absorbance at the reference wavelength of 570 nm from the absorbance at a wavelength of 450 nm was regarded as the binding activity to any of various types of antigen proteins, and a case where a value obtained by dividing the binding activity to any of various types of chimeric TfR by the binding activity to His-huTfR was 0.5 or more was denoted by ++, a case where the value was 0.2 or more and less than 0.5 was denoted by +, and a case where the value was less than 0.2 was denoted by −.

chimeric TfR A07 = molecular target: T3, chimeric TfR A07 (human/mouse chimera, UniProt P02786 89-760); experiment: ELISA on immobilized chimeric TfR; grade = binding relative to His-huTfR (++ 0.5 or more, + 0.2 to less than 0.5)
T3 construct: also called M365L-V366E-E369Q
Description: as §1, §2

chimeric TfR A02 = molecular target: T4, chimeric TfR A02 (human/mouse chimera, UniProt P02786 89-760); experiment: as above
T4 construct: also called D352S-S355A-D356R-K358N
T4 chain: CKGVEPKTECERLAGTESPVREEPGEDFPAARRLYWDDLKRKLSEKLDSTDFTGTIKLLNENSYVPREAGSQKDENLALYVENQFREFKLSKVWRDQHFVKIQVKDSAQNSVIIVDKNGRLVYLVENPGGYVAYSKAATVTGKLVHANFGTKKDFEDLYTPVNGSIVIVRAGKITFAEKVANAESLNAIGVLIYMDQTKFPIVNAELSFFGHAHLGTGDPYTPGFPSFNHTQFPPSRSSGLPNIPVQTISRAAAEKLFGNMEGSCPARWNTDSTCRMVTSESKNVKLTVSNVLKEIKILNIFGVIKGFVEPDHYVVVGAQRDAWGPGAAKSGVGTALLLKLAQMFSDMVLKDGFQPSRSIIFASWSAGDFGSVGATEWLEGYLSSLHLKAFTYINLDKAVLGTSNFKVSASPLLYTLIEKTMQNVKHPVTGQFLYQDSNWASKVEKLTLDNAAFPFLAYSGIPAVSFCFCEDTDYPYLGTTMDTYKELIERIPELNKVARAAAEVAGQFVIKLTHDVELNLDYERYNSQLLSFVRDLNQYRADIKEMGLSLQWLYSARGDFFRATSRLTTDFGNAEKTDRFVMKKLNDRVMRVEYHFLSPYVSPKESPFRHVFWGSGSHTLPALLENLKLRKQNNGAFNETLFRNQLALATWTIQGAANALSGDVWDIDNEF
Description: as §1, §2

chimeric TfR A05 [2] = molecular target: T5, chimeric TfR A05 (human/mouse chimera, UniProt P02786 89-760); experiment: as above
T5 construct: also called P249S-L274F
Description: as §1, §2

[3] = molecular target: T6, huTfR with mouse apical domain (human/mouse chimera, UniProt P02786 89-760); experiment: as above
T6 construct: His tag added; also called chimeric protein of human TfR extracellular domain with mouse apical domain
T6 chain: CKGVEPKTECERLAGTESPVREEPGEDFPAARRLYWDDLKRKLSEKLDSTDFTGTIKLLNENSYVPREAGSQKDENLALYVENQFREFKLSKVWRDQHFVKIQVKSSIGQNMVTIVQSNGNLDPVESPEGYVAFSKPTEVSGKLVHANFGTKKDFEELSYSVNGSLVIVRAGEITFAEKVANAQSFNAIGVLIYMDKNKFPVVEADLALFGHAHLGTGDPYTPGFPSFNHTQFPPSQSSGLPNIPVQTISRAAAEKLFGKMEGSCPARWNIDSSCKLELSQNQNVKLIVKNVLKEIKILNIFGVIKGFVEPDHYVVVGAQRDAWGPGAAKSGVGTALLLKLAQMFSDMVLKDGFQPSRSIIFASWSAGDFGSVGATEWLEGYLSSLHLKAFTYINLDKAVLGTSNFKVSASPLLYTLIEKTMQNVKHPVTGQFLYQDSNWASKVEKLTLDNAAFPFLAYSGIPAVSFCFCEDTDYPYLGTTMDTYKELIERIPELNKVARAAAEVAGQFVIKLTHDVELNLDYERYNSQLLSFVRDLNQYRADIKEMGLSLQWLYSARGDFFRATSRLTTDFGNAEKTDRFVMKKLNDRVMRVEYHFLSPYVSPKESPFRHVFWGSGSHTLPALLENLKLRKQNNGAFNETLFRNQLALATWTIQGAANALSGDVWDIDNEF
Description: as §1, §2

chimeric TfR A14 = molecular target: T7, chimeric TfR A14 (human/mouse chimera, UniProt P02786 89-760); experiment: as above
T7 construct: also called D204Q-K205S-E369Q
Description: as §1, §2

chimeric TfR A04 = molecular target: T8, chimeric TfR A04 (human/mouse chimera, UniProt P02786 89-760); experiment: as above
T8 construct: also called D245E-K261E-D356R
Description: as §1, §2

chimeric TfR A03 = molecular target: T9, chimeric TfR A03 (human/mouse chimera, UniProt P02786 89-760); experiment: as above
T9 construct: also called D245E-K261E
Description: as §1, §2

chimeric TfR A05 [4] = molecular target: T5, chimeric TfR A05; experiment: ELISA on immobilized chimeric TfR
Description: as §1, §2

[5] = molecular target: T6, huTfR with mouse apical domain; experiment: ELISA on immobilized chimeric TfR
Description: as §1, §2

[6] = molecular target: T2, huTfR with mouse protease-like domain; experiment: ELISA on immobilized chimeric TfR; grade = binding relative to His-huTfR (++ 0.5 or more, + 0.2 to less than 0.5)
Description: as §1, §2

Binder	binding result (mouse TfR on CHO cells)	ratio of ELISA binding activity (A450-A570) to chimeric TfR over that to His-huTfR [1] [ratio]	ratio of ELISA binding activity (A450-A570) to chimeric TfR over that to His-huTfR (chimeric TfR A07) [ratio]	ratio of ELISA binding activity (A450-A570) to chimeric TfR over that to His-huTfR (chimeric TfR A02) [ratio]	ratio of ELISA binding activity (A450-A570) to chimeric TfR over that to His-huTfR (chimeric TfR A05 [2]) [ratio]	ratio of ELISA binding activity (A450-A570) to chimeric TfR over that to His-huTfR [3] [ratio]	ratio of ELISA binding activity (A450-A570) to chimeric TfR over that to His-huTfR (chimeric TfR A14) [ratio]	ratio of ELISA binding activity (A450-A570) to chimeric TfR over that to His-huTfR (chimeric TfR A04) [ratio]	ratio of ELISA binding activity (A450-A570) to chimeric TfR over that to His-huTfR (chimeric TfR A03) [ratio]	ratio of ELISA binding activity (A450-A570) to chimeric TfR over that to His-huTfR (chimeric TfR A05 [4]) [ratio]	ratio of ELISA binding activity (A450-A570) to chimeric TfR over that to His-huTfR [5] [ratio]	ratio of ELISA binding activity (A450-A570) to chimeric TfR over that to His-huTfR [6] [ratio]
B1	no binding	< 0.2	≥ 0.5	≥ 0.5	≥ 0.5	≥ 0.5	≥ 0.5	≥ 0.5	≥ 0.5			
B2			≥ 0.5	≥ 0.5			≥ 0.5	0.2 to 0.5	≥ 0.5	< 0.2	< 0.2	≥ 0.5
